Molecular target: Glycated hemoglobin HbA1c (Homo sapiens, UniProt P69905;P68871 P69905:2-142,P68871:2-147)
Test: detection range by PEG:AptGP silicon nanowire FET in 1x PBS; hemolytic blood also detected, serum control response <10%
Conditions: also hemolytic whole blood samples; chain copies: 2
Method: Prior to the surface modification, an SiNW-FET was washed with ethanol and cleaned with oxygen plasma (25 W, 50 sccm, 60 s). The SiNW-FET device was then incubated for 15 min in an ethanol solution (1% v/v) containing an optimal ratio of MPTMS, PTMS, and PEG-silane, of which the ethanol solution was also mixed with 16.7 mM DTT to reduce the possible disulfide linkages among the thiol groups of MPTMS. Next, this silane-based SAM-modified device was rinsed with ethanol, dried under N₂, and heated at 100° C. for 15 min. Finally, the silane-based SAM-modified device was incubated in 1×PBS containing 1 μM AptGP and 16.7 mM DTT for 1 hr, where AptGP (with the 5′-SH) was immobilized to MPTMS via a disulfide bond to form a PEG:AptGP/SiNW-FET aptasensor.
We show a representative example of measuring HbA1c in the blood sample of Subject 1 by PEG:AptGP/SiNW-FET. Before detecting HbA1c in a lysed-blood sample, a PEG:AptGP/SiNW-FET aptasensor was calibrated by recording the transfer curves corresponding to various concentrations of HbA1c (CHbA1c=0-1.2 μM in 1×PBS), as shown in FIG. 14. […] By comparison, we also detected HbA1c in serum as a control test (with the transfer curves measured in the lower panel of FIG. 16 and the corresponding electrical responses presented in FIG. 17), where the serum was isolated from the tested blood sample by centrifugation.

Sequence of Glycated hemoglobin HbA1c (P69905 2-142, chain 1 of 2): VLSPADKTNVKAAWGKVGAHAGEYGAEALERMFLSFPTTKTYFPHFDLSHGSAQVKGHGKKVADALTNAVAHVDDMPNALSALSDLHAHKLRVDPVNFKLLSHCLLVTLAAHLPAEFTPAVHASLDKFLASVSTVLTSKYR
Sequence of Glycated hemoglobin HbA1c (P68871 2-147, chain 2 of 2): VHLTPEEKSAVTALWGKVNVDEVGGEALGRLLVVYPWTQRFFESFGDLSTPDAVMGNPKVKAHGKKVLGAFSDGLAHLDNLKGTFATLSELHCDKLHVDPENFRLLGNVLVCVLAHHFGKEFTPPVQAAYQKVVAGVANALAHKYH

Binder: GGTGAGTTAAGGAATCAGCGGCTCAGACGACCCGACGCAC (ssDNA, end-modified for disulfide conjugation to MPTMS on silicon nanowire) [AptGP (Aptamer A)]
- binding result: binds

From patent US20230028090, “Method Of Using Aptamer For Detecting Glycated Hemoglobin In Whole Blood And Nanoelectronic Aptasensor” (National Taiwan University, published 2023)
